# Experimental data reported in US20060172377, “Site-specific serine recombinases and methods of their use” (published 2006).
# B1: A118 attB (dsDNA)
# DNA 1: TTGAGCTAATTAAAACCAGCTGTAACTTTTTCGGATCAAGCTATGAAGGACGCAAAGAGGGAACTAAACACTTAATTGGTGTTACCCATAAGCCAC
# DNA 2: GTGGCTTATGGGTAACACCAATTAAGTGTTTAGTTCCCTCTTTGCGTCCTTCATAGCTTGATCCGAAAAAGTTACAGCTGGTTTTAATTAGCTCAA
# B2: Bxb1 attB (dsDNA)
# DNA 1: GGCCGGCTTGTCGACGACGGCGGTCTCCGTCGTCAGGATCATCCGG
# DNA 2: CCGGATGATCCTGACGACGGAGACCGCCGTCGTCGACAAGCCGGCC
# B3: A118 attP (dsDNA)
# DNA 1: ACGCTAGTAGCTTGTTTATTTAGATTGTTTAGTTCCTCGTTTTCTCTCGTTGGAAGAAGAAGAAACGAGAAACTAAAATTATAAATAAAAAGTAACCTA
# DNA 2: TAGGTTACTTTTTATTTATAATTTTAGTTTCTCGTTTCTTCTTCTTCCAACGAGAGAAAACGAGGAACTAAACAATCTAAATAAACAAGCTACTAGCGT
# Assays:
# Details in all cases: chain copies: 4
# [1] = molecular target: T1, A118 recombinase (Listeria monocytogenes phage A118); assay: cell_activity; partner of N7, tobacco BY2 protoplasts; chromosomal integration also seen (Tables 1-2)
# T1 chain: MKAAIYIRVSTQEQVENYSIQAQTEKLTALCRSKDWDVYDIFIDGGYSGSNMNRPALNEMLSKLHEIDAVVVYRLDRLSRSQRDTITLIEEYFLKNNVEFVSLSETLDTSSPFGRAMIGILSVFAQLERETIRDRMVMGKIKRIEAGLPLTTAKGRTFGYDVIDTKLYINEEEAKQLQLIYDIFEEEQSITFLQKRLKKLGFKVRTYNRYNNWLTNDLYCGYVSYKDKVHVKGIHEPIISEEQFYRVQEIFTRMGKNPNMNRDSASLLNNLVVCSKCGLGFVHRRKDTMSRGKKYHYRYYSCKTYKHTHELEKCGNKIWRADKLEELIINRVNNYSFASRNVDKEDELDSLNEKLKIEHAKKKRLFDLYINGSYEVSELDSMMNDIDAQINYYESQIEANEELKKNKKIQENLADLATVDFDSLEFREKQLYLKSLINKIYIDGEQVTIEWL
# Method: (§1) Cell suspension cultures of Nicotiana tobacum BY2 were maintained in MS medium in the dark and subcultured weekly (Nagata, T., T. Nemoto, and S. Hasezawa. 1992. Tobacco BY-2 cell line as the Hela cell in the cell biology of higher plants. Intl. Rev. Cytol., 132:1-30). Protoplasts prepared from 3 day-old cultures were resuspended in 0.4 M mannitol and distributed into 35 mm petri dishes in 1 mL aliquots (˜5×10⁵ cells). Protoplasts were mixed with plasmid DNA and electroporated at 0.56 K Volts for 80μ seconds using a square wave electroporation system with Petripulser electrode (BTX, San Diego, Calif., USA). The cells were transfected with 10 μg for the intramolecular recombination test plasmid and 0 or 10 μg for the recombinase expression plasmid. Following the electroporation, protoplasts were diluted with 1 mL of 2× protoplast culture medium (Watanabe, Y., T. Meshi, and Y. Okada. 1987. Infection of tobacco protoplasts with in vitro transcribed tobacco mosaic virus RNA using an improved electroporation method. Virology, 192:264-272), aliquotted as two 1 mL cultures, and incubated at 27° C. for 17 h. Protoplasts were lysed by freeze thawing and addition of 250 μL 5× passive lysis buffer (Promega, Madison, Wis., USA). Twenty μL of cell extract was assayed for luciferase activity using Dual Luciferase Assay kit on a plate reader equipped with injectors. […]
# [2] = molecular target: T2, Bxb1 recombinase (Mycobacterium smegmatis phage Bxb1); assay: cell_activity; partner of N5, NIH3T3; chromosomal integration also seen (Tables 1-2)
# T2 chain: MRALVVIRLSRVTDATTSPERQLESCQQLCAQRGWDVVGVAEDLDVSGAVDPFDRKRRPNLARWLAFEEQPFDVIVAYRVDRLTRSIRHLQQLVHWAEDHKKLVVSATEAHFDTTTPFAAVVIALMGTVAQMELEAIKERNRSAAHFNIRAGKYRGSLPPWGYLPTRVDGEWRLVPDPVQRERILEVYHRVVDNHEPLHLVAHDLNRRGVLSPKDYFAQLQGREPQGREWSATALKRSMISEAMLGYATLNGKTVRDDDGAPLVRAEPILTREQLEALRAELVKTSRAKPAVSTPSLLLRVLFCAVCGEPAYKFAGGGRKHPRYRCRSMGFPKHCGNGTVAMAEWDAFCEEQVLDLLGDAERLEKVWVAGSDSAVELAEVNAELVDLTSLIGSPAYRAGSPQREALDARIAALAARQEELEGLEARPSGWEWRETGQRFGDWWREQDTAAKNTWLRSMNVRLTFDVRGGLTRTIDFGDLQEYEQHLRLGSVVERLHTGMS
# Method: Cells were maintained at 37° C. and 5% CO₂ in DMEM supplemented with 10% fetal bovine serum and 1% penicillin/streptomycin (obtained from Invitrogen, Carlsbad, Calif.) or in other media as indicated. On the day of transfection, cells were plated at different densities depending on the cell type used. The cells were transfected with intramolecular recombination assay plasmid alone or along with varying amounts of recombinase expression plasmid DNA using Lipofectamine 2000™ according to the manufacturers instructions (Invitrogen, Carlsbad, Calif.). Constitutively expressed Renilla luciferase reporter plasmid (pRL-CMV from Promega, Madison, Wis.) was co-transfected (2 ng/well) and used as an internal control to normalize the data. Twenty-four or forty-eight hours after transfection (depending on the cell line), media was discarded and cells were lysed with passive lysis buffer (Promega, Madison, Wis.). Extracts were then assayed using Dual Luciferase Assay kit (Promega, Madison, Wis.) on a plate reader equipped with injectors (Dynex Technologies, Chantilly, Va.). The data shown are the ratios of luciferase (Luc) and Renilla luciferase (RLuc) activities, unless noted otherwise. Similar results were observed when Luc activities (relative light units) were compared (data not shown). […]
# [3] = molecular target: T1, A118 recombinase; assay: cell_activity; attP x attB recombination with N8, tobacco BY2 protoplasts; also active in mammalian cells
# Method: as §1
binder,measurement,setting,value
B1,activity,[1],364 fold induction
B2,activity,[2],66 fold induction
B3,activity,[3],364 fold induction
